This is an account of results in article PMC7343156, “Purification and characterization of a novel medium-chain ribitol dehydrogenase from a lichen-associated bacterium Sphingomonas sp” (PLoS ONE, 2020).

Substrate in data set [1]: NC(=O)c1ccc[n+]([C@@H]2O[C@H](COP(=O)(O)OP(=O)(O)OC[C@H]3O[C@@H](n4cnc5c(N)ncnc54)[C@H](O)[C@@H]3O)[C@@H](O)[C@H]2O)c1
Put plainly: purified protein. The conditions noted are these: 10-160 mM D-ribitol, NAD+ 0.05-1 mM, 100 mM potassium phosphate pH 8.0, 25°C, no added metal, varied: cofactor. It is filed as biochemical, Sphingomonas sp. PAMC 26621.

Substrate in data set [2]: OC[C@@H](O)[C@@H](O)[C@@H](O)CO
Put plainly: purified protein. The conditions noted are these: 10-160 mM D-ribitol, NAD+ 0.05-1 mM, 100 mM potassium phosphate pH 8.0, 25°C, no added metal. It is filed as biochemical, Sphingomonas sp. PAMC 26621.

B1: SpRDH (Sphingomonas sp. PAMC 26621) (protein)
chain: MTQKTMTAVVCHGPKDYRVEEIAHPTAGALEFVIRVTACGICASDCKCWSGAKMFWGDDPWVKAPVVPGHEFFGVVDELGEGAGEHFGVAVGDRVIAEQIVPCERCRYCRSGQYWMCEVHNIFGFQRLVADGGMAQFMRLPRTSRVHLIPAEIPDDDAVIIEPLACALHTVRRGTIGFEDVVVIAGAGPIGLMMVQAARLQTPRKLVVIDMVPERLALATTFGADVVINPATDDALAIVHGLTDGYGCDVYIEATGSPAGVVQGLNLIRRLGRFVEFSVFGSDTTVDWSIIGDRKELDVRGAHLGPYCYPIAIDLLSRGLITSNGIVTHRFPLIQWAEAIAVADSLESIKVVLSPST
notes: native enzyme purified from Sphingomonas sp; PAMC 26621 grown on D-ribitol; untagged; identified by MALDI-TOF/TOF
In the case of B1, in “purified protein [1]”, the Km was determined as 0.3 ± 0.02 mM and the kcat amounted to 29 ± 0.7 s⁻¹. In the data set “purified protein [2]”, the Km turned out to be 8.5 ± 1.2 mM, the kcat worked out at 29 ± 0.7 s⁻¹ and the kcat/Km was 3500 M⁻¹ s⁻¹.

By Km is commonly meant the substrate concentration at which the rate is half of its maximum. The kcat is the number of substrate molecules converted per active site and unit of time at saturation. The term kcat/Km denotes the second-order rate constant that governs catalysis at low substrate concentration.
